Measurements as given in patent US7033593.

What was measured:
[1] = target: T1, CD4-gp140 complex (HIV 89.6 gp140 bound to sCD4) (HIV 89.6 (Clade B) primary isolate), Q73372; assay: SPR, peptide over gp140 captured on immobilised CD4
[2] = target: T1, CD4-gp140 complex (HIV 89.6 gp140 bound …); assay: SPR (FIG. 10D); the legend of the same figure prints 280 nM
[3] = target: soluble HIV 89.6 gp140 envelope protein (cleaved gp140 preparation) (HIV 89.6 (Clade B) primary isolate), Q73372; assay: SPR, peptide over directly immobilised 89.6 gp140, no CD4
[4] = target: T1, CD4-gp140 complex (HIV 89.6 gp140 bound …); assay: SPR, row CD4+gp140 (89.6 gp140); column headed Kd s-1
[5] = target: T1, CD4-gp140 complex (HIV 89.6 gp140 bound …); assay: SPR, row CD4+gp140 (89.6 gp140); column headed Ka
[6] = target: T1, CD4-gp140 complex (HIV 89.6 gp140 bound …); assay: SPR, row CD4-gp140
[7] = target: T2, CD4-gp140-D1 complex (HIV 89.6 gp140 bound to sCD4 and the CCR5-D1 peptide) (HIV 89.6 (Clade B) primary isolate; human), Q73372; assay: SPR, RU bound at steady state, row CD4+gp140+R5-D1 (89.6 gp140)
[8] = target: T2, CD4-gp140-D1 complex (HIV 89.6 gp140 …); assay: SPR, row CD4+gp140+R5-D1 (89.6 gp140); column headed Kd s-1
[9] = target: CD4-gp120 complex (HIV 89.6 gp120 bound to sCD4) (HIV 89.6 (Clade B) primary isolate), Q73372; assay: SPR, row CD4-gp120
[10] = target: T2, CD4-gp140-D1 complex (HIV 89.6 gp140 …); assay: SPR, row CD4+gp140+R5-D1 (89.6 gp140); column headed Ka
[11] = target: T2, CD4-gp140-D1 complex (HIV 89.6 gp140 …); assay: SPR, row CD4+gp140+R5-D1 (89.6 gp140)
[12] = target: T1, CD4-gp140 complex (HIV 89.6 gp140 bound …); assay: SPR, row CD4+gp140 (89.6 gp140)
[13] = target: T1, CD4-gp140 complex (HIV 89.6 gp140 bound …); assay: SPR, RU bound at steady state, row CD4+gp140 (89.6 gp140)

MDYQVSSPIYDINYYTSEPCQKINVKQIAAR (modifications not checked) [CCR5-D1 peptide] was tested, and the Kd [1] was 0.28 µM, the koff [1] was 0.00256 s⁻¹ and the kon [1] was 9000 M⁻¹ s⁻¹. It also gave a Kd [2] of 0.28 µM, a Kd [3] of 1 µM and a koff [3] of 0.01 s⁻¹.

Binder WMEWDREINNYTSLIHSLIEESQNQLEKNEQELLEL (modifications not checked) [HR-2 peptide T649Q26L] has a koff [4] of 0.0146 s⁻¹, a kon [5] of 6200 M⁻¹ s⁻¹ and a Kd [6] of 1.2 µM. The koff [6] was 0.0011 s⁻¹, the kon [6] was 880 M⁻¹ s⁻¹ and the t1/2 [6] was 10.5 min. For the same binder, the Rm [7] was 64 RU, the koff [8] was 0.0053 s⁻¹ and the Kd [9] was 2.54 µM. For the same binder, the koff [9] was 0.0032 s⁻¹, the kon [9] was 1260 M⁻¹ s⁻¹ and the t1/2 [9] was 3.62 min. The kon [10] was 5100 M⁻¹ s⁻¹, the Kd [11] was 1 µM and the t1/2 [11] was 2.18 min. It also gave a Kd [12] of 2.4 µM, a t1/2 [12] of 0.8 min and a Rm [13] of 53 RU.
